This passage reports Kd and IC50 results from patent US20110059889A1 (SYNTONIX PHARMACEUTICALS, published 2011).

In test [1] the target is T1, soluble human FcRn (shFcRn) (human, UniProt P55899 24-297; P61769 21-119).
T1 construct: Biotinylated for the ELISA, amine-coupled to a CM5 chip for SPR; also called biotinylated shFcRn
In words: SPR pH 6; 3PyridylAla in place of His.
Experimental: (§1) The following steps were performed to cross-link soluble human or cynomolgus FcRn to the dextran surface of a CM5 sensor chip (Biacore AB, Uppsala, Sweden) by an amine coupling reaction involving 1-ethyl-(3-dimethylaminopropyl)-carbodiimide hydrochloride (EDC) (Biacore AB, Uppsala, Sweden) and N-hydroxysuccinimide (NHS) (Biacore AB, Uppsala, Sweden) as recommended by Biacore (BIAapplications Handbook, version AB, section 4.2, Biacore AB, Uppsala, Sweden). […] Residual sites on the FcRn flow cell were blocked with 1 M ethanolamine hydrochloride pH 8.5 (Biacore AB, Uppsala, Sweden). A control flow cell was blocked with ethanolamine for reference subtraction. For analysis of the monomeric peptides, FcRn was coated to a final density of 4000-5000 response units (RU). For analysis of the peptide dimers, FcRn was coated to a density of 2000-2500 RU. All SPR measurements were performed using a BIACORE 3000 Instrument (Biacore AB Uppsala, Sweden). For measurements done at either pH 6 or pH 7.4, experiments were performed in 50 mM phosphate, 100 mM sodium chloride, 0.01% surfactant P20 (Biacore AB, Uppsala, Sweden).
(§2) Ten, 2-fold dilutions of the peptide were injected over the FcRn-CM5 chip at a rate of 20 μl/min for 2 min. The peptide was dissociated from the chip for 2.5 minutes with buffer. […] Sensorgrams were generated and analyzed using BiaEval software version 3.1 (Biacore AB, Uppsala, Sweden). […]

Test [2] has as its target T1, soluble human FcRn (shFcRn). In words: IgG competition ELISA. For orientation: An ELISA detects its analyte on a solid surface through an enzyme-linked reagent.
Experimental: (§3) The wells were coated with 100 μl/well of 1 μg/ml biotinylated-shFcRn in Buffer A. The plate was sealed and incubated at 37° C. for 2 hours. Afterwards, the plate was washed with 200 μl/well of Buffer B (Buffer B: 100 mM MES pH 6, 150 mM NaCl, 0.5% BSA IgG-free (Jackson ImmunoResearch, West Grove, Pa.), 0.05% Tween-20). […] To allow for mixing, the plate was rocked for 2 minutes, sealed and incubated at 37° C. for 2 hours. […] The plate was covered, incubated for 30 minutes at room temperature and washed 4 times with 200 μl/well of ice-cold buffer B. SureBlue TMB substrate solution (100 μl/well, KPL, Gaithersburg, Md.) was added and the plate was allowed to incubate at room temperature until color developed, which took 5 to 10 minutes. Once color developed, 100 μl/well of TMB stop solution (KPL, Gaithersburg, Md.) was added and the absorbance was measured at 450 nm. The data was plotted as absorbance vs. peptide concentration to derive the inhibitory concentration 50% (IC₅₀) values.
For test [3] the target is unchanged. The test can be described thus: SPR pH 7.4; 3PyridylAla in place of His.
Experimental: as §1, §2
For test [4] the target is unchanged. In words: SPR pH 7.4; 4-PiperidylAla in place of His.
Experimental: as §1, §2
For test [5] the target is unchanged. In words: SPR pH 6; 4-PiperidylAla in place of His.
Experimental: as §1, §2
Test [6] shares this target. The test can be described thus: IgG competition ELISA. The source holds these as a separate data set.
Test [7] shares this target. The test can be described thus: IgG competition ELISA. The source holds these as a separate data set.
Experimental: as §3
For test [8] the target is unchanged. In words: SPR pH 6.
Experimental: as §1, §2
Test [9] shares this target. In words: SPR pH 6. The source holds these as a separate data set.
Experimental: as §1
(§4) Ten, 2-fold dilutions of the peptide were injected over the FcRn-CM5 chip at a rate of 20 μl/min for 2 min. The peptide was dissociated from the chip for 2.5 minutes with buffer. Any remaining peptide was removed from the chip with a 30 second injection of HBS-P buffer (Biacore AB, Uppsala, Sweden) at a rate of 30 μl/min. Sensorgrams were generated and analyzed using BiaEval software version 3.1 (Biacore AB, Uppsala, Sweden). The equilibrium RU observed for each injection was plotted against concentration. The equilibrium KD values were derived by analysis of the plots using the steady state affinity model included in the BiaEval software.
Test [10] shares this target. In words: IgG competition ELISA. This is another data set of the same source.
Experimental: as §3
Test [11] has the same target. The test can be described thus: SPR pH 6. This is another data set of the same source.
Experimental: as §1, §4
Test [12] has the same target. In words: IgG competition ELISA. The source holds these as a separate data set.
Experimental: as §3
For test [13] the target is unchanged. In words: SPR pH 6. The source holds these as a separate data set.
Experimental: as §1, §4
Test [14] has the same target. The test can be described thus: IgG competition ELISA. This is another data set of the same source.
Experimental: as §3
For test [15] the target is unchanged. The test can be described thus: IgG competition ELISA. The source holds these as a separate data set.
Test [16] shares this target. In words: SPR pH 6. The source holds these as a separate data set.
Experimental: as §1, §4
The target is the same in test [17]. The test can be described thus: IgG competition ELISA. This is another data set of the same source.
Experimental: as §3
Test [18] has the same target. The test can be described thus: SPR pH 6. This is another data set of the same source.
Experimental: as §1, §2
For test [19] the target is unchanged. In words: SPR pH 6. The source holds these as a separate data set.
Experimental: as §1, §4
Test [20] has the same target. In words: SPR pH 6. The source holds these as a separate data set.
Experimental: as §1, §2
Test [21] shares this target. In words: SPR pH 6. The source holds these as a separate data set.
Experimental: as §1, §4
For test [22] the target is unchanged. In words: IgG competition ELISA. The source holds these as a separate data set.
Experimental: as §3
Test [23] has the same target. The test can be described thus: SPR pH 6. The source holds these as a separate data set.
Experimental: as §1, §4
Test [24] shares this target. The test can be described thus: IgG competition ELISA. This is another data set of the same source.
Experimental: as §3
Test [25] has the same target. In words: SPR pH 6. This is another data set of the same source.
Experimental: as §1, §2
Test [26] has the same target. In words: IgG competition ELISA. This is another data set of the same source.
Test [27] shares this target. In words: SPR pH 6; Orn in place of His.
Experimental: as §1, §2
For test [28] the target is unchanged. In words: SPR pH 6; 2-PyrrolidinylAla in place of His.
Experimental: as §1, §2
Test [29] has the same target. In words: SPR pH 7.4; ThienylAla in place of His.
Experimental: as §1, §2
Test [30] shares this target. The test can be described thus: SPR pH 6; ThienylAla in place of His.
Experimental: as §1, §2
The target is the same in test [31]. The test can be described thus: SPR pH 7.4.
Experimental: as §1, §2
The target is the same in test [32]. The test can be described thus: SPR pH 7.4. This is another data set of the same source.
Experimental: as §1, §2
The target is the same in test [33]. The test can be described thus: SPR pH 6; 4-PyridylAla in place of His.
Experimental: as §1, §2
Test [34] shares this target. The test can be described thus: SPR pH 7.4; 4-PyridylAla in place of His.
Experimental: as §1, §2
Test [35] shares this target. The test can be described thus: SPR pH 6; Peptide No. 87: Pen, 2-nitro-Tyr for Tyr (QRF-Pen-TGHFGGL-(2-nitro-Tyr)-PCNGP).
Experimental: as §1, §2

A word on the Kd: it is the free concentration of one partner at which half of the binding sites on the other are occupied at equilibrium, for simple one-to-one binding. A high value points to lower affinity. The term IC50 denotes the midpoint of a concentration-inhibition curve. Low readings indicate higher potency, high ones lower potency.

Where two headings read alike, the source gives them in different places. Numbered stars: 1 amine (or outer) side, 2 acyl side, 3 side chain; on linkers, the order of the positions; unused ones are H or OH. Bridge positions count the residues as written; N and C are the ends. Square brackets hold non-standard residues; d marks the D form. Ends that are not written are not given here. Tyr(2-NO2) = 2-nitro-Tyr, O=C([C@H](Cc1ccc(O[*:3])cc1[N+](=O)[O-])N[*:1])[*:2]; Phe(4-F) = N[C@@H](Cc1ccc(F)cc1)C(=O)O; Pen = CC(C)(S)[C@H](N)C(=O)O

T1 sequence (P55899 24-297 limits assumed, chain 1 of 2): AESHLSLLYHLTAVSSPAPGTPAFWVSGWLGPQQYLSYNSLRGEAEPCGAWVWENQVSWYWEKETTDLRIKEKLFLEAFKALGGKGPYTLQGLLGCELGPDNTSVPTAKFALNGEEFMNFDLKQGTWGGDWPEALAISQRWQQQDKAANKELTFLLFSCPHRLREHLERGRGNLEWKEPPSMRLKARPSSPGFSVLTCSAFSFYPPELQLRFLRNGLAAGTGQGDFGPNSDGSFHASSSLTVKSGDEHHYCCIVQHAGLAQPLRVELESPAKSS
T1 sequence (P61769 21-119 limits assumed, chain 2 of 2): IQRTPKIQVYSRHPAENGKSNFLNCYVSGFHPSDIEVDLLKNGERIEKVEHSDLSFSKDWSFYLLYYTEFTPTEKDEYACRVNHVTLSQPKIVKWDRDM

As to RFCTGXFGGLYPC (Pen 3; 3PyridylAla 6; Sar 9; NMeL 10; disulfide 3-13; C-terminal amide) [Peptide No. 250], the figures for the Kd in [1] and in [3] were 64 nM and 260 nM, respectively. Moreover, in [2], the half-inhibitory concentration (IC50) was 1200 nM.

With RFCTGXFGGLYPC (Pen 3; 4-PiperidylAla 6; Sar 9; NMeLeu 10; disulfide 3-13; C-terminal amide) [Peptide No. 264], the dissociation constant (Kd) in test [4] came to 6400 nM; in [5] it was 5200 nM. In [2], this molecule showed a 50% inhibitory concentration (IC50) of 85000 nM.

B1: Peptide No. 32 (peptide)
peptide: QRF[Pen]TGHFGGLYPCNGP-NH2
modifications: disulfide 4-14; N-terminus assumed
SMILES: CC(C)C[C@@H]1NC(=O)CNC(=O)CNC(=O)[C@H](Cc2ccccc2)NC(=O)[C@H](Cc2c[nH]cn2)NC(=O)CNC(=O)[C@H]([C@@H](C)O)NC(=O)[C@@H](NC(=O)[C@H](Cc2ccccc2)NC(=O)[C@H](CCCNC(=N)N)NC(=O)[C@@H](N)CCC(N)=O)C(C)(C)SSC[C@@H](C(=O)N[C@@H](CC(N)=O)C(=O)NCC(=O)N2CCC[C@H]2C(N)=O)NC(=O)[C@@H]2CCCN2C(=O)[C@H](Cc2ccc(O)cc2)NC1=O
With B1, the IC50 in test [6], in [7], in [10], in test [12], in test [14] and in test [15] was 2000 nM throughout. Besides, the concentration for half-maximal inhibition (IC50) in [2], in test [17], in [22], in test [24] and in test [26] was 2000 nM each time. For the same molecule, the Kd in test [8], in test [9], in [11], in test [13], in test [16] and in [18] was 250 nM in each case. In addition, the dissociation constant Kd in [19], in test [20], in test [21], in test [23] and in test [25] was 250 nM in each case.

Consider RFCTGXFGGLYPC (Pen 3; Orn 6; Sar 9; NMeL 10; disulfide 3-13; C-terminal amide) [Peptide No. 254], for which, in test [27], the affinity, expressed as Kd, was 1300 nM.

In turn, RFCTGXFGGLYPC (Pen 3; 2-PyrrolidinylAla 6; Sar 9; NMeLeu 10; disulfide 3-13; C-terminal amide) [Peptide No. 262] returned a dissociation constant Kd in test [28] of 8400 nM.

In [2], RFCTGXFGGLYPC (Pen 3; ThienylAla 6; Sar 9; NMeL 10; disulfide 3-13; C-terminal amide) [Peptide No. 251] displayed a half-maximal inhibitory concentration (IC50) of 45000 nM. Besides, the results for the equilibrium dissociation constant (Kd) in test [29] and in test [30] were 3000 nM and 2000 nM, respectively.

B2: Peptide No. 84 (peptide)
peptide: QRF[Pen]TGHFGGHYPCNGP-NH2
modifications: disulfide 4-14; N-terminus assumed
SMILES: C[C@@H](O)[C@@H]1NC(=O)[C@@H](NC(=O)[C@H](Cc2ccccc2)NC(=O)[C@H](CCCNC(=N)N)NC(=O)[C@@H](N)CCC(N)=O)C(C)(C)SSC[C@@H](C(=O)N[C@@H](CC(N)=O)C(=O)NCC(=O)N2CCC[C@H]2C(N)=O)NC(=O)[C@@H]2CCCN2C(=O)[C@H](Cc2ccc(O)cc2)NC(=O)[C@H](Cc2c[nH]cn2)NC(=O)CNC(=O)CNC(=O)[C@H](Cc2ccccc2)NC(=O)[C@H](Cc2c[nH]cn2)NC(=O)CNC1=O
Take B2: the figures for the dissociation constant Kd in [19] and in test [31] were 380 nM and 2500 nM, respectively.

B3: Peptide No. 140 (peptide)
peptide: QRF[Pen]TGHFGGL[Phe(4-F)]PCNGP-NH2
modifications: disulfide 4-14; N-terminus assumed
SMILES: CC(C)C[C@@H]1NC(=O)CNC(=O)CNC(=O)[C@H](Cc2ccccc2)NC(=O)[C@H](Cc2c[nH]cn2)NC(=O)CNC(=O)[C@H]([C@@H](C)O)NC(=O)[C@@H](NC(=O)[C@H](Cc2ccccc2)NC(=O)[C@H](CCCNC(=N)N)NC(=O)[C@@H](N)CCC(N)=O)C(C)(C)SSC[C@@H](C(=O)N[C@@H](CC(N)=O)C(=O)NCC(=O)N2CCC[C@H]2C(N)=O)NC(=O)[C@@H]2CCCN2C(=O)[C@H](Cc2ccc(F)cc2)NC1=O
B3 registered a 50% inhibitory concentration (IC50) in test [15] of 26000 nM. The molecule also returned a dissociation constant (Kd) in test [32] of 24000 nM.

Take RFCTGXFGGLYPC (Pen 3; 4-PyridylAla 6; Sar 9; NMeLeu 10; disulfide 3-13; C-terminal amide) [Peptide No. 268]: the Kd is 67 nM in test [33] and 280 nM in test [34]. The molecule further showed a half-inhibitory concentration (IC50) in test [2] of 1300 nM.

B4: Peptide No. 87 (peptide)
peptide: QRF[Pen]TGHFGGL[Tyr(2-NO2)]PCNGP-NH2
modifications: disulfide 4-14; N-terminus assumed
SMILES: CC(C)C[C@@H]1NC(=O)CNC(=O)CNC(=O)[C@H](Cc2ccccc2)NC(=O)[C@H](Cc2c[nH]cn2)NC(=O)CNC(=O)[C@H]([C@@H](C)O)NC(=O)[C@@H](NC(=O)[C@H](Cc2ccccc2)NC(=O)[C@H](CCCNC(=N)N)NC(=O)[C@@H](N)CCC(N)=O)C(C)(C)SSC[C@@H](C(=O)N[C@@H](CC(N)=O)C(=O)NCC(=O)N2CCC[C@H]2C(N)=O)NC(=O)[C@@H]2CCCN2C(=O)[C@H](Cc2ccc(O)cc2[N+](=O)[O-])NC1=O
In [35], B4 showed a Kd of 290000 nM.
